Experimental data as given in paper PMC10023570, “Essential protein P116 extracts cholesterol and other indispensable lipids for Mycoplasmas” (Nature Structural & Molecular Biology, 2023).

How the values were obtained:
[1] = target: P116 W681A (M. pneumoniae) (UniProt P75556); test: SEC-MALS; Superose 6 10/300 GL column, DAWN HELEOS II MALS detector and Optilab T-REX refractive index detector
[2] = target: the molecule itself; test: as above

“P116 W681A (from UniProt P75556 30-957) (domain or fragment)” gave a rate of dimers to monomers (dimers:monomers) [1] of 0.25.

B1: P116 (30–957), ectodomain of P116 (MPN_213) from Mycoplasma pneumoniae (domain or fragment)
chain: NKTHQVEHESEQSDFQDIRFGLNSVKLPKAQPAAATRITVENGTDKLVNYKSSPQQLFLAKNALKDKLQGEFDKFLSDAKAFPALTADLQEWVDQQLFNPNQSFFDLSAPRSNFTLSSDKKASLDFIFRFTNFTESVQLLKLPEGVSVVVDSKQSFDYYVNASAQKLLVLPLSLPDYTLGLNYMFDHITLNGKVVNKFSFNPFKTNLNLAFSNVYNGVDVFEAQKNLVGKGKYLNTHVKAEDVKKDVNANIKNQFDIAKIIAELMGKALKEFGNQQEGQPLSFLKVMDKVKEDFEKLFNLVRPGLGKFVKDLIQSSSQAENKITVYKLIFDNKKTILNLLKELSIPELNSSLGLVDVLFDGITDSDGLYERLQSFKDLIVPAVKTNEKTAALSPLIEELLTQKDTYVFDLIQKHKGILTNLLKNFLADFQKSTPFMADQVAIFTELFDNEGAFDLFGEADFVDKIAELFLTKRTVKNGEKIETKDSLLVTSLKSLLGEKVAALGDLLDSYIFKNELLNRSVEVAKAEAKDTKGATDYKKEQAKALKKLFKHIGENTLSKTNLDKITLKEVKNTENVELEETETTLKVKKLDVEYKVELGNFEIKNGLIKAMLEFLPDTKDLETTLDKLLFKGESYKAMKDKYIKEGFPGYGWAKGVVPGAFESIENTFKSAIDKTKSIRDLFGDMLFGNDLSSVKETDSFITLGGSFDIKYGGENLNVLPAYYSLINSEIGYQIIGVDTTIDATKVKVELKNKEYKGKSPAINGQVKLSQSFFNVWTNMFDSITKQIFQKKYEFKDNIQVFARNEDNTSRLELDISDPEQRVIPFAFVDGFGIQLKAVDKNITKEAGNTEPKSPVIQLYEALNKEKDQKQQSKQSPKQLDTKTQLGYLLKLGDNWSKDDYKSLIDDTIINNNYLEASFNSKITVDRLG
notes: source: E. coli B834 (DE3), purified (HisTrap, Superdex 200)
B1 was tested, and the “stoichiometry N” value [2] was 2.
